According to PMC7577485, “An intrinsic mechanism for coordinated production of the contact-dependent and contact-independent weapon systems in a soil bacterium” (PLoS Pathogens, 2020):

Legend:
GST-Clp (Clp) = molecular target: T1, GST-Clp (Clp) (Lysobacter enzymogenes, UniProt Q7WZ07); assay: microscale thermophoresis, NT-647-labelled GST-Clp; assay type: binding; conditions: 25 °C; 10 μM labelled protein (130 mM NaHCO3, 50 mM NaCl); no Hcp; protein concentration above Kd
T1 construct: labelled with NT-647-NHS for MST
T1 sequence (Q7WZ07 1-229): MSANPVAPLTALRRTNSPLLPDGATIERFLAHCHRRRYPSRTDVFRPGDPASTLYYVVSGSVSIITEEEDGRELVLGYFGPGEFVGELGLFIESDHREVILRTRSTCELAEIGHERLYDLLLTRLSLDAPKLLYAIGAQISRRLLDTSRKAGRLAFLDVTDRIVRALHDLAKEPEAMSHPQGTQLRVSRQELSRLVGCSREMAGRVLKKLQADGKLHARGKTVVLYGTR

[1] = molecular target: GST-Clp (Lysobacter enzymogenes) (UniProt Q7WZ07); assay: MST; 10 μM NT-647-NHS labelled GST-Clp or GST in label buffer (130 mM NaHCO3, 50 mM NaCl) titrated with unlabelled Hcp-His6 in PBS; Monolith NT.115, 25°C, 80% MST power, 20% LED power
[2] = system: Clp (Lysobacter enzymogenes OH11); assay: MST; conditions: MST: 0.5 uM FAM-DNA, Clp in PBS, 25 C

Which Kd (GST-Clp (Clp)) does the source give for `Nc1nc2c(ncn2[C@@H]2O[C@@H]3COP(=O)(O)O[C@H]4[C@@H](O)[C@H](n5cnc6c(=O)[nH]c(N)nc65)O[C@@H]4COP(=O)(O)O[C@H]3[C@H]2O)c(=O)[nH]1` [c-di-GMP] here?
The Kd was 1500 nM.

How did the Kd [1] turn out when Hcp-His6 (natural protein) was run?
The Kd was 1510 nM.

How did the Kd [2] turn out when PA site probe, HSAF operon promoter was run?
Its Kd is 390 nM.
